The nature of data set [1]: Pharmacokinetics of intracellular expression of SQT scaffold polypeptide in mouse livers in vivo. The arrangement: species or system mice. To be noted: mouse liver. The protocol: Studies were performed to assess the pharmacokinetics of intracellular expression of the SQT scaffold polypeptide in mouse livers in vivo following multiple dosing. Mice were dosed on day 0 and on day 7 with an LNP carrying an mmRNA construct encoding the SQT scaffold polypeptide. The construct lacked any presenting polypeptides at any of the insertion sites (i.e., the construct was a “dummy” construct of only the scaffold), and was labeled with a FLAG epitope tag. Following dosing with the LNPs, liver protein was recovered and analyzed for expression of the SQT scaffold using the FLAG epitope tag for detection and quantification by quantitative Western blot analysis (LICOR/Western). Protein amounts were normalized to vinculin.

The test system of a further data set is cells. The data set can be described thus: Half-life determination by bio-orthogonal non-canonical amino acid tagging (BONCAT). Type of data set: cell-based. To be noted: SQT protein scaffold in cells, post-transfection, one-phase decay fit. Here is the method:
The half-life of the SQT protein scaffold in cells was determined by Bio-orthogonal non-canonical amino acid tagging (BONCAT). […] AHA contains a reactive group (a terminal azide), which can be conjugated to a fluorophore via click chemistry. Newly synthesized proteins in the cells were separated by molecular weight (SDS-PAGE) at various time points post-transfection and visualized via in-gel fluorescence. The fluorescent signal was quantified using Li-cor's Image Studio (Version 3.1). One-phase decay nonlinear regression fit was by GraphPad Prism (Version 6).

As a reminder, the half-life is the time needed for the level to fall by half in the phase considered. High values mean slow decline, low ones rapid decline.

B1: SQT scaffold: Stefin A Quadruple Mutant-Tracy scaffold polypeptide (SEQ ID NO: 70) expressed from a dummy mmRNA construct (protein)
chain: MIPRGLSEAKPATPEIQEIVDKVKPQLEEKTNETYGKLEAVQYKTQVLASTNYYIKVRAGDNKYMHLKVFNGPPGQNADRVLTGYQVDKNKDDELTGF
modifications: Synthetic SteA SQT scaffold amino acid sequence
On to B1, for which the “time to peak protein levels” value is listed as “approximately 20 hours” in data set [1] (first dose (day 0) of LNP) and “approximately 20 hours” in data set [1] (second dose (day 7), post-injection). Moreover, the “time at which protein levels were essentially finished” value in data set [1] (post-injection of first dose) was “approximately 160 hours”. The same molecule showed a half-life with cells of 33.31 h.

(Values after US20190119357A1, “MESSENGER RIBONUCLEIC ACIDS FOR THE PRODUCTION OF INTRACELLULAR BINDING POLYPEPTIDES AND METHODS OF USE THEREOF” (ModernaTX, Inc., priority 2015, published 2019).)
